# Reference: the supplement of paper PMC9112550, “Optimization of the antimicrobial peptide Bac7 by deep mutational scanning” (BMC Biology, 2022)
# Test system: Escherichia coli TOP10
# Experiment: shrunken log2 fold change of peptide-encoding DNA abundance (4.5 h post-induction vs induction); higher = less antimicrobial activity (less host growth inhibition)
# Conditions: time post-induction: 4.5 h; library: site-saturation at positions 5, 18, 19, 20
# 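Also: peptides expressed intracellularly from a pBAD plasmid library in pooled LB shake-flask culture, induced with 0.3% L-arabinose, DNA abundance read by NGS, three biological replicates, DESeq2 with apeglm shrinkage.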
row,Sequence,shrunken log2 fold change
1,RRIRWRPPRLPRPRPRPCCWPRP,0.438
2,RRIRWRPPRLPRPRPRPCDKPRP,-0.217
3,RRIRWRPPRLPRPRPRPCFRPRP,0.021
4,RRIRWRPPRLPRPRPRPCHDPRP,0.0415
5,RRIRWRPPRLPRPRPRPCIKPRP,0.0427
6,RRIRWRPPRLPRPRPRPCKHPRP,-0.245
7,RRIRWRPPRLPRPRPRPCLNPRP,0.0137
8,RRIRWRPPRLPRPRPRPCLTPRP,-0.00541
9,RRIRWRPPRLPRPRPRPCMWPRP,-0.0796
10,RRIRWRPPRLPRPRPRPCQPPRP,-0.118
11,RRIRWRPPRLPRPRPRPCSAPRP,0.0988
12,RRIRWRPPRLPRPRPRPCSFPRP,0.0624
13,RRIRWRPPRLPRPRPRPCSHPRP,-0.264
14,RRIRWRPPRLPRPRPRPCSIPRP,-0.134
15,RRIRWRPPRLPRPRPRPCSYPRP,-0.0533
16,RRIRWRPPRLPRPRPRPCWAPRP,0.197
17,RRIRWRPPRLPRPRPRPCYFPRP,-0.0204
18,RRIRWRPPRLPRPRPRPCYQPRP,0.0103
19,RRIRWRPPRLPRPRPRPDAMPRP,0.393
20,RRIRWRPPRLPRPRPRPDEIPRP,0.0148
21,RRIRWRPPRLPRPRPRPDGMPRP,0.0134
22,RRIRWRPPRLPRPRPRPDGSPRP,-0.0311

row,Sequence,shrunken log2 fold change
1,RRIRWRPPRLPRPRPRPDHHPRP,-0.445
2,RRIRWRPPRLPRPRPRPDHWPRP,0.109
3,RRIRWRPPRLPRPRPRPDHYPRP,-0.023
4,RRIRWRPPRLPRPRPRPDICPRP,-0.0379
5,RRIRWRPPRLPRPRPRPDIEPRP,-0.0323
6,RRIRWRPPRLPRPRPRPDLEPRP,0.974
7,RRIRWRPPRLPRPRPRPDLGPRP,-0.135
8,RRIRWRPPRLPRPRPRPDMDPRP,0.0441
9,RRIRWRPPRLPRPRPRPDNIPRP,-0.12
10,RRIRWRPPRLPRPRPRPDPMPRP,0.444
11,RRIRWRPPRLPRPRPRPDRVPRP,0.0957
12,RRIRWRPPRLPRPRPRPDTRPRP,-0.0523
13,RRIRWRPPRLPRPRPRPDYWPRP,0.122
14,RRIRWRPPRLPRPRPRPEAIPRP,0.25
15,RRIRWRPPRLPRPRPRPEEEPRP,0.00738
16,RRIRWRPPRLPRPRPRPEFFPRP,0.54
17,RRIRWRPPRLPRPRPRPEFPPRP,0.0195
18,RRIRWRPPRLPRPRPRPEGRPRP,0.65
19,RRIRWRPPRLPRPRPRPEHDPRP,-0.0282
20,RRIRWRPPRLPRPRPRPEIYPRP,0.21
21,RRIRWRPPRLPRPRPRPEKNPRP,0.686
22,RRIRWRPPRLPRPRPRPEKVPRP,0.115

row,Sequence,shrunken log2 fold change
1,RRIRWRPPRLPRPRPRPELMPRP,0.0289
2,RRIRWRPPRLPRPRPRPELYPRP,0.541
3,RRIRWRPPRLPRPRPRPEMRPRP,2.09
4,RRIRWRPPRLPRPRPRPEPDPRP,0.901
5,RRIRWRPPRLPRPRPRPEQLPRP,0.00937
6,RRIRWRPPRLPRPRPRPETKPRP,0.285
7,RRIRWRPPRLPRPRPRPETRPRP,1.32
8,RRIRWRPPRLPRPRPRPEVWPRP,0.966
9,RRIRWRPPRLPRPRPRPEWPPRP,0.956
10,RRIRWRPPRLPRPRPRPEYPPRP,0.208
11,RRIRWRPPRLPRPRPRPFDVPRP,-0.00233
12,RRIRWRPPRLPRPRPRPFEAPRP,0.253
13,RRIRWRPPRLPRPRPRPFENPRP,-0.15
14,RRIRWRPPRLPRPRPRPFFIPRP,-0.309
15,RRIRWRPPRLPRPRPRPFFSPRP,-0.101
16,RRIRWRPPRLPRPRPRPFHAPRP,0.0472
17,RRIRWRPPRLPRPRPRPFHEPRP,-0.0657
18,RRIRWRPPRLPRPRPRPFHPPRP,-0.138
19,RRIRWRPPRLPRPRPRPFIIPRP,-0.617
20,RRIRWRPPRLPRPRPRPFKRPRP,0.0707
21,RRIRWRPPRLPRPRPRPFLEPRP,0.0541
22,RRIRWRPPRLPRPRPRPFLFPRP,0.095

row,Sequence,shrunken log2 fold change
1,RRIRWRPPRLPRPRPRPFMSPRP,-0.0321
2,RRIRWRPPRLPRPRPRPFNVPRP,-0.114
3,RRIRWRPPRLPRPRPRPFQAPRP,-0.222
4,RRIRWRPPRLPRPRPRPFQLPRP,-0.316
5,RRIRWRPPRLPRPRPRPFRKPRP,-0.351
6,RRIRWRPPRLPRPRPRPFSHPRP,-0.241
7,RRIRWRPPRLPRPRPRPFTFPRP,-0.326
8,RRIRWRPPRLPRPRPRPFVCPRP,-0.108
9,RRIRWRPPRLPRPRPRPFVKPRP,-0.753
10,RRIRWRPPRLPRPRPRPFVYPRP,-0.428
11,RRIRWRPPRLPRPRPRPFYRPRP,-0.179
12,RRIRWRPPRLPRPRPRPGADPRP,0.839
13,RRIRWRPPRLPRPRPRPGAFPRP,0.3
14,RRIRWRPPRLPRPRPRPGAKPRP,0.21
15,RRIRWRPPRLPRPRPRPGCFPRP,0.375
16,RRIRWRPPRLPRPRPRPGCTPRP,0.194
17,RRIRWRPPRLPRPRPRPGDDPRP,0.351
18,RRIRWRPPRLPRPRPRPGEIPRP,0.889
19,RRIRWRPPRLPRPRPRPGFYPRP,0.0692
20,RRIRWRPPRLPRPRPRPGGAPRP,0.691
21,RRIRWRPPRLPRPRPRPGGTPRP,0.209
22,RRIRWRPPRLPRPRPRPGHVPRP,0.153

row,Sequence,shrunken log2 fold change
1,RRIRWRPPRLPRPRPRPGIDPRP,0.117
2,RRIRWRPPRLPRPRPRPGIVPRP,0.585
3,RRIRWRPPRLPRPRPRPGKTPRP,0.0109
4,RRIRWRPPRLPRPRPRPGLPPRP,0.288
5,RRIRWRPPRLPRPRPRPGMKPRP,0.0023
6,RRIRWRPPRLPRPRPRPGMNPRP,-0.0747
7,RRIRWRPPRLPRPRPRPGMSPRP,0.893
8,RRIRWRPPRLPRPRPRPGNFPRP,-0.149
9,RRIRWRPPRLPRPRPRPGPKPRP,0.21
10,RRIRWRPPRLPRPRPRPGPMPRP,0.327
11,RRIRWRPPRLPRPRPRPGPVPRP,0.423
12,RRIRWRPPRLPRPRPRPGSDPRP,0.661
13,RRIRWRPPRLPRPRPRPGSIPRP,-0.0682
14,RRIRWRPPRLPRPRPRPGTYPRP,-0.127
15,RRIRWRPPRLPRPRPRPGVIPRP,0.0325
16,RRIRWRPPRLPRPRPRPGWGPRP,0.534
17,RRIRWRPPRLPRPRPRPGWQPRP,0.0857
18,RRIRWRPPRLPRPRPRPGYVPRP,-0.215
19,RRIRWRPPRLPRPRPRPHCHPRP,-0.254
20,RRIRWRPPRLPRPRPRPHCLPRP,0.0644
21,RRIRWRPPRLPRPRPRPHCPPRP,-0.0401
